Measurements taken from IntAct's records for PubMed 24528925.

B1: Ubiquitin-conjugating enzyme E2 Z (Homo sapiens), Q9H832 (parent)
chain: MAESPTEEAATAGAGAAGPGASSVAGVVGVSGSGGGFGPPFLPDVWAAAAAAGGAGGPGSGLAPLPGLPPSAAAHGAALLSHWDPTLSSDWDGERTAPQCLLRIKRDIMSIYKEPPPGMFVVPDTVDMTKIHALITGPFDTPYEGGFFLFVFRCPPDYPIHPPRVKLMTTGNNTVRFNPNFYRNGKVCLSILGTWTGPAWSPAQSISSVLISIQSLMTENPYHNEPGFEQERHPGDSKNYNECIRHETIRVAVCDMMEGKCPCPEPLRGVMEKSFLEYYDFYEVACKDRLHLQGQTMQDPFGEKRGHFDYQSLLMRLGLIRQKVLERLHNENAEMDSDSSSSGTETDLHGSLRV

Variants of: B1
Settings: with ubd_human UBD
In the case of K323R, the “effect of a mutation on the interaction” value is reported as “decreasing interaction”.
